Laboratory results published in the supplement of paper PMC12764529.
± gives the half width of the 95% confidence interval.

Columns and labels:
[1] = folding stability dG unfold from trypsin proteolysis; higher = more stable
How it was run: (§1)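 Sequencing followed digestion of designed mini-proteins with trypsin and chymotrypsin, each at 11 concentrations in threefold dilutions together with a no-protease condition. The mini-proteins were under 80 residues, had no cysteine, sat in a PA-tagged cDNA display construct, and were kept only if AlphaFold2 dimer inter-PAE was above 15. From the counts, Bayesian fitting gave K50, and unfolding free energy was derived against a sequence-predicted unfolded-state K50 and a shared folded-state K50, per protease or combined.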

[2] = folding stability dG unfold from chymotrypsin proteolysis; higher = more stable
How it was run: as §1

[3] = folding stability dG unfold (combined trypsin and chymotrypsin); higher = more stable
How it was run: as §1

Sequence	folding stability dG unfold [1]	folding stability dG unfold [2]	folding stability dG unfold [3]
SAGGSAGGSAMTPEEIKKLFPNAKMKPFKGNGKTVIVIELPSGEKIEIVFDDGKPRIIVYKGSAGGSAGGSA [r18_13_TrMRF]	5.69 ± 0.176 kJ/mol	5.46 ± 0.381 kJ/mol	5.51 ± 0.544 kJ/mol
SAGGSAGGSAMTTVTSTTEIPPSALTVKTSVSTAPDGSLVETTTVVLPDGSVVTTTLSTVASAGGSAGGSAG [r3_7_JUSTAS]	4.08 ± 0.146 kJ/mol	4.98 ± 0.0753 kJ/mol	4.66 ± 0.197 kJ/mol
SAGGSAGGSAMVVEERRLPDDLLVRTEVEPVEDNELPGPALRVTVTTVDLKTGEETPEVIPESAGGSAGGSA [r18_66_JUSTAS]	-2.98 ± 0.669 kJ/mol	0.702 ± 0.126 kJ/mol	-0.346 ± 0.381 kJ/mol
SAGGSAGGSAMVVRGEDLTPEALLELLEENPEEVTLETKDHIATVKFNPETGELEITSVDDISAGGSAGGSA [r18_75_TrMRF]	5.75 ± 0.502 kJ/mol	7.25 ± 0.414 kJ/mol	6.71 ± 0.544 kJ/mol
SAGGSAGGSANGFVFKIKEVFEVDGKLFLKVTGTDKEYIIPDNAIIEPLEDDSVKVIILPPESAGGSAGGSA [r18_468_TrMRF]	4.96 ± 0.0879 kJ/mol	5.64 ± 0.36 kJ/mol	5.49 ± 0.255 kJ/mol
SAGGSAGGSANIDIKVEENPGNGYRKVEVTMTVDDLRELFGNEPIPPGEERQIKMTIYLPIPSAGGSAGGSA [r18_327_TrROS]	3.23 ± 0.544 kJ/mol	5.73 ± 0.397 kJ/mol	5.05 ± 0.711 kJ/mol
SAGGSAGGSANMPPEELADWIADKFQQRHGHPVKEIEVEHDPENNNYTITVEFDDKERTITLSAGGSAGGSA [r18_145_TrROS]	-1.14 ± 0.628 kJ/mol	3.51 ± 1.17 kJ/mol	2.47 ± 0.92 kJ/mol
SAGGSAGGSANRKVIQFDSPEEILEAIDEAPEDDPVIIEWHDPDGGEPWWIKFDGDEIELIMSAGGSAGGSA [r18_407_TrROS]	-2.76 ± 0.962 kJ/mol	-1.16 ± 1.72 kJ/mol	-2.14 ± 1.88 kJ/mol
SAGGSAGGSAPDIKIEKIGENTYKITLNFEFTFEDGSKVKVKITFTFTVNFPEDDPLLKELFSAGGSAGGSA [r18_215_TrMRF]	11.3 ± 0.255 kJ/mol	13.44 ± 0.117 kJ/mol	12.6 ± 0.46 kJ/mol
SAGGSAGGSAPDNVEIEVYELPAGMYRVKIWPPGGNRHEFNFPPGEPKKIKIPPGVSIEIWPFSAGGSAGGS [r12_517_TrROS]	1.93 ± 0.628 kJ/mol	3.19 ± 1.21 kJ/mol	3.11 ± 0.92 kJ/mol
SAGGSAGGSAPELVKKIAEELPVPVKVEPFGNVLLVELELPNEDGEPVKLRLAIPIPPELLGSAGGSAGGSA [r18_27_TrMRF]	-0.816 ± 0.46 kJ/mol	3.8 ± 0.502 kJ/mol	1.94 ± 0.795 kJ/mol
SAGGSAGGSAPGKSITITFLFIWPDGWILVMKITFDPDGPGDIDIEWQWIPIPPPEPPPEDPSAGGSAGGSA [r18_409_TrROS]	15.1 ± 1.21 kJ/mol	22.5 ± 1.34 kJ/mol	21.6 ± 1.92 kJ/mol
SAGGSAGGSAPIKITEHTYNPGDGMVWATAEAEDPNGWKIKLTIWFFPDGNIQIEITEIVPSAGGSAGGSAG [r3_7_TrROS]	10.2 ± 0.753 kJ/mol	18.4 ± 0.586 kJ/mol	16 ± 1.17 kJ/mol
SAGGSAGGSAPKEVVVLDLKISPVPDPRYFPAEFTVYIPENGKPFPVTAVFDPEGGEVTIGSAGGSAGGSAG [r3_1_TrMRF]	11.3 ± 0.297 kJ/mol	13.5 ± 0.418 kJ/mol	12.7 ± 0.502 kJ/mol
SAGGSAGGSAPKPIEITFPAKSLEEAKIAAEEIKRAFEELEDVKVEVEYDPETGTVTVRVYGSAGGSAGGSA [r18_368_TrMRF]	12 ± 0.502 kJ/mol	15 ± 0.293 kJ/mol	14.1 ± 0.368 kJ/mol
SAGGSAGGSAPKVEPHPVTFTFENAVVTVTRYRVPDEDGNPLYFTSVSVFFLDKDGKPGFVFPSAGGSAGGS [r20_13_TrMRF]	13.7 ± 0.318 kJ/mol	20.2 ± 0.289 kJ/mol	18.2 ± 0.753 kJ/mol
SAGGSAGGSAPLIELRPPEEPLFLPLENLLGRGIPLEELAKLLEKLTGRKVEPVKPGYIRTGSAGGSAGGSA [r18_7_TrMRF]	-0.805 ± 1.59 kJ/mol	-0.535 ± 1.05 kJ/mol	-0.673 ± 1.84 kJ/mol
SAGGSAGGSAPNLEVEEQRNPDGGMEMEIIRLKNDGLTIFFMEMRPDDKTMTMLMLMPLDASAGGSAGGSAG [r3_126_TrROS]	9.18 ± 0.795 kJ/mol	9.69 ± 0.544 kJ/mol	10.4 ± 0.795 kJ/mol
SAGGSAGGSAPNMDWVMIPIRVPPGEPPKVKITFPDGPTREFDPGRWVWIWFPPGDPMKIEPESAGGSAGGS [r12_553_TrROS]	4.37 ± 0.146 kJ/mol	7.83 ± 0.544 kJ/mol	6.44 ± 0.628 kJ/mol
SAGGSAGGSAPPLKILRPEATVHPDGGVTVVAELEGGYLVVETVTFDPETGTASSSVEIVPLDSAGGSAGGS [r20_15_TrMRF]	-3.4 ± 0.502 kJ/mol	4.31 ± 0.0628 kJ/mol	2.95 ± 0.197 kJ/mol
SAGGSAGGSAPPNDWYVGIMEITININIDADQLPPPLREKFEKNGIKEIRITFVSVFPPDDFSAGGSAGGSA [r18_127_TrROS]	11.5 ± 0.879 kJ/mol	14.9 ± 0.46 kJ/mol	13.1 ± 0.795 kJ/mol

Sequence	folding stability dG unfold [1]	folding stability dG unfold [2]	folding stability dG unfold [3]
SAGGSAGGSAPPYKYVQIELWIPGPIEEIADELQDNFGIRSIDVKRDPENGWVRADIYFQFPSAGGSAGGSA [r18_275_TrROS]	8.65 ± 0.192 kJ/mol	10.23 ± 0.1 kJ/mol	9.45 ± 0.586 kJ/mol
SAGGSAGGSAPRVRYRRRVLVYFPADGSVVPVVLEVSPGPLTLRLDLPAASFPPVRIAPLGSAGGSAGGSAG [r3_454_TrMRF]	5.34 ± 0.276 kJ/mol	10.8 ± 0.41 kJ/mol	8.3 ± 0.586 kJ/mol
SAGGSAGGSAPVAYTITITYRDPDGSTRTLTLTFPNLTPEEAKEAAEALPIPASVVSIDITKASAGGSAGGS [r12_886_JUSTAS]	9.35 ± 0.247 kJ/mol	15.67 ± 0.146 kJ/mol	13.8 ± 0.343 kJ/mol
SAGGSAGGSAPVFLRVEVENPNGERFELTAKLGDPIEIDPSVVDNVKVEVFDPDGNKAEFELNSAGGSAGGS [r12_380_TrMRF]	1.19 ± 0.176 kJ/mol	2.56 ± 0.238 kJ/mol	2.12 ± 0.289 kJ/mol
SAGGSAGGSAPVFTSPEEAEKYAREKLLREKPESHPDLVVNVNVTVTTEPDGTITIEIDYKESAGGSAGGSA [r18_440_JUSTAS]	3.9 ± 0.385 kJ/mol	7.18 ± 0.36 kJ/mol	5.41 ± 0.586 kJ/mol
SAGGSAGGSAPWRIRIRDPNGKKVEIPWEEVADKFGIPPEEMTLDDILEAFANNIDRIEIVDSAGGSAGGSA [r18_403_TrROS]	3.81 ± 0.28 kJ/mol	1.51 ± 0.502 kJ/mol	2.68 ± 0.339 kJ/mol
SAGGSAGGSARITVTPEGGYWRVTIKGPGKTRTFQFPMPANEAEEIVEELQNPPIDIDVEPVSAGGSAGGSA [r18_103_TrROS]	-1.37 ± 1.26 kJ/mol	-0.593 ± 0.837 kJ/mol	-0.481 ± 0.586 kJ/mol
SAGGSAGGSASEIMDEFPNLEIDNVNPDHGMMIIKWPDGWYWRVNVGNGEIEPVSPEDLEDMSAGGSAGGSA [r18_381_TrROS]	1.87 ± 0.155 kJ/mol	4.11 ± 0.347 kJ/mol	3.46 ± 0.753 kJ/mol
SAGGSAGGSASLSPEKKVTIKTTVPQPTPPAVTTTLTGQFPSSLTLEELAEKDPNATVSITGSAGGSAGGSA [r18_279_JUSTAS]	0.924 ± 0.247 kJ/mol	5.69 ± 0.0586 kJ/mol	4.34 ± 0.23 kJ/mol
SAGGSAGGSASMSPEELAEKYREEYEKKYGIPAVEVKVEVIPEEEKYVITIKLPGSEITVIVSAGGSAGGSA [r18_145_JUSTAS]	15.2 ± 1.09 kJ/mol	11.5 ± 0.372 kJ/mol	13 ± 0.544 kJ/mol
SAGGSAGGSASMTVRATLPNGEEIEFEADVIKADPGGDSVTVYLILPNGGEIPFEVELEEEESAGGSAGGSA [r18_163_TrMRF]	1.55 ± 0.176 kJ/mol	2.95 ± 0.795 kJ/mol	2.4 ± 0.318 kJ/mol
SAGGSAGGSASNVKILGLVSVDPETGLVRLAAYDPETGKVLYFIAPNADGEPLLLEVEENPGSAGGSAGGSA [r18_296_TrMRF]	7.55 ± 0.172 kJ/mol	10.2 ± 0.234 kJ/mol	9.25 ± 0.297 kJ/mol
SAGGSAGGSASPVPVVEVEITPVKLPGDETAAKITVLLEGDGEPVVVWFDSKDVEKVIEEVLASAGGSAGGS [r20_238_JUSTAS]	1.23 ± 0.502 kJ/mol	3.54 ± 0.105 kJ/mol	3.24 ± 0.46 kJ/mol
SAGGSAGGSASSIVLTKTPGSYVLTEVELSSSTYPPSPPDYGSVVTVTPLEVVEREPGVPLPSAGGSAGGSA [r18_255_JUSTAS]	0.33 ± 0.502 kJ/mol	1.1 ± 0.795 kJ/mol	0.737 ± 0.753 kJ/mol
SAGGSAGGSASSMVKPEKLPNGEKVVVTTETVPDPNSDTPVTVVTTEIYKGDKIVEVKTTLVSAGGSAGGSA [r18_185_JUSTAS]	1.42 ± 0.159 kJ/mol	1.61 ± 0.502 kJ/mol	1.84 ± 0.544 kJ/mol
SAGGSAGGSASSMVTVTVSVSPDEGDEEVAKEIAKELGRPDAKVTKITYDPATGTLTITLVDSAGGSAGGSA [r18_481_JUSTAS]	6.72 ± 0.28 kJ/mol	6.4 ± 0.259 kJ/mol	6.62 ± 0.46 kJ/mol
SAGGSAGGSASTITITTPSGEKVKVTLTSLPTPTTLATITVTSTGKTYTIVIAPDGTITLASAGGSAGGSAG [r3_15_JUSTAS]	14.2 ± 0.28 kJ/mol	15.31 ± 0.109 kJ/mol	14.8 ± 0.314 kJ/mol
SAGGSAGGSASVVADENKIVVTFPNGKVVELDLSDPKKAKEKLLALKPLDIPPITLELVPPASAGGSAGGSA [r18_68_JUSTAS]	-0.582 ± 0.297 kJ/mol	3.52 ± 0.172 kJ/mol	2.4 ± 0.502 kJ/mol
SAGGSAGGSATATVTPHEGAWTVTVTGPDSTETFTFEADEETVREFVELLKAPDVDIDPVPGSAGGSAGGSA [r18_103_TrMRF]	7.51 ± 0.293 kJ/mol	4.69 ± 0.402 kJ/mol	6.13 ± 0.36 kJ/mol
SAGGSAGGSATIWIPVSQIEEFLKQMPPDRIKEVKITYDPEDGWIPVKIPGGREIMIWVPKSAGGSAGGSAG [r3_291_TrROS]	4.81 ± 0.121 kJ/mol	3.47 ± 0.226 kJ/mol	4.45 ± 0.318 kJ/mol
SAGGSAGGSATLTLELEIEVDGVRFRVRAELRLDEDGRLHLRVEIEVEPLPPPPPLVAEGEELSAGGSAGGS [r20_30_TrROS_Hall]	12 ± 0.586 kJ/mol	18.1 ± 0.962 kJ/mol	16.9 ± 1.26 kJ/mol
